This note sets out measurements from patent US20170096474A1 (published 2017).

For test [1], the target named is T1, BoNT/B light chain (LC), yeast displayed (Clostridium botulinum, UniProt P10844 1-441).
T1 sequence: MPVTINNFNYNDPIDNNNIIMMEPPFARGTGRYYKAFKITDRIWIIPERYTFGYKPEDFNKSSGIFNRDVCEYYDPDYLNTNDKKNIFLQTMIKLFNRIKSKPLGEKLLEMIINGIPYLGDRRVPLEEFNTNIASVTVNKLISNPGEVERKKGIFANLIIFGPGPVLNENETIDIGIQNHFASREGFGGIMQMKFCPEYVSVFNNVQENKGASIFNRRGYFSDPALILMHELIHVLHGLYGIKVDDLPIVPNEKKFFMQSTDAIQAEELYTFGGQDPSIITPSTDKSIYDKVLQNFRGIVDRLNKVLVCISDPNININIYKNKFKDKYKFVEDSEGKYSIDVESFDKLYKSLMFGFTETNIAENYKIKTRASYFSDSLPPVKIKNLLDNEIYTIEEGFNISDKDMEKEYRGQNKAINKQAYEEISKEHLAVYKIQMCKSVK
The test can be described thus: soluble scFv or IgG on yeast-displayed BoNT/B domains.

Test [2] deals with Botulinum neurotoxin type B, subtype B2 (BoNT/B2) (Clostridium botulinum). The test can be described thus: flow cytometry, yeast-displayed Fab against yeast-displayed scFv. In general terms: Flow cytometry measures light scatter and fluorescence of single cells or particles in a stream.
Test [3] has as its target T2, Botulinum neurotoxin type B, subtype B1 (BoNT/B1) (Clostridium botulinum, UniProt P10844 2-1291).
T2 sequence: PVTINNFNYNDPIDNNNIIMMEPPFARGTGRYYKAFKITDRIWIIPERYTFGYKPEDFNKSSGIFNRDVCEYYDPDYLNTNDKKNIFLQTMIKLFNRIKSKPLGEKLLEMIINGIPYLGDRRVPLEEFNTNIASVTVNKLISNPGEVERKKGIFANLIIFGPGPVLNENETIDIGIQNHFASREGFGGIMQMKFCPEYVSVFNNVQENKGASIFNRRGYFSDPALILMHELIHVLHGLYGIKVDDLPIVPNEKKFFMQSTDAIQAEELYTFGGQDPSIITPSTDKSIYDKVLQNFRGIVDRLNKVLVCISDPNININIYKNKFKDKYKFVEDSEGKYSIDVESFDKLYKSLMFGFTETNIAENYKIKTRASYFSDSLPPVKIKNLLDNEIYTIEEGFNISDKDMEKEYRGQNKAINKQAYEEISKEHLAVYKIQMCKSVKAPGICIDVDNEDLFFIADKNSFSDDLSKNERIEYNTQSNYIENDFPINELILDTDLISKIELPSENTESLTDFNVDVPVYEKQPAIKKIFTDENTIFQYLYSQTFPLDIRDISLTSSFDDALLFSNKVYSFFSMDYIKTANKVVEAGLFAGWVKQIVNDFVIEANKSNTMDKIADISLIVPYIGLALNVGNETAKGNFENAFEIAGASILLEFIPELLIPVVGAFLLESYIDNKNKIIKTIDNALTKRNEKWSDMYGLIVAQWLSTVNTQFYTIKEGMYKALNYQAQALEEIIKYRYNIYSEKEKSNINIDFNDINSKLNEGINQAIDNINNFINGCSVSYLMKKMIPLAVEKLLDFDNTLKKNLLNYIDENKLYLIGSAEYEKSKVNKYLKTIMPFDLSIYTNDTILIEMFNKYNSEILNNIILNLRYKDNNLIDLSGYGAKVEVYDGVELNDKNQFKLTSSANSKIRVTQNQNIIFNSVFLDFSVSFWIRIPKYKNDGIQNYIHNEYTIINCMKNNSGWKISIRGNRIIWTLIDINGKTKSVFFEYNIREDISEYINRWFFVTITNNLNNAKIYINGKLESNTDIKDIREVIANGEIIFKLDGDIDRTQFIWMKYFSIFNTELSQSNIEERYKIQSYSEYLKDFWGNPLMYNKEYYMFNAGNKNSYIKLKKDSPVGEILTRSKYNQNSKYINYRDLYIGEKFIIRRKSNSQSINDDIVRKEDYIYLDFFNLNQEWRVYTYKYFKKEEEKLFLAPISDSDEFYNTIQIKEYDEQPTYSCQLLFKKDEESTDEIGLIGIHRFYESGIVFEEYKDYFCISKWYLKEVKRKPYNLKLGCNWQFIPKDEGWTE
The test can be described thus: flow cytometry, yeast-displayed Fab.

The target of test [4] is T1, BoNT/B light chain (LC), yeast displayed. The test can be described thus: labeled detection mAb in flow cytometry sorting.
Test [5] concerns the target T3, BoNT/B translocation domain (HN), yeast displayed (Clostridium botulinum, UniProt P10844 442-857).
T3 sequence: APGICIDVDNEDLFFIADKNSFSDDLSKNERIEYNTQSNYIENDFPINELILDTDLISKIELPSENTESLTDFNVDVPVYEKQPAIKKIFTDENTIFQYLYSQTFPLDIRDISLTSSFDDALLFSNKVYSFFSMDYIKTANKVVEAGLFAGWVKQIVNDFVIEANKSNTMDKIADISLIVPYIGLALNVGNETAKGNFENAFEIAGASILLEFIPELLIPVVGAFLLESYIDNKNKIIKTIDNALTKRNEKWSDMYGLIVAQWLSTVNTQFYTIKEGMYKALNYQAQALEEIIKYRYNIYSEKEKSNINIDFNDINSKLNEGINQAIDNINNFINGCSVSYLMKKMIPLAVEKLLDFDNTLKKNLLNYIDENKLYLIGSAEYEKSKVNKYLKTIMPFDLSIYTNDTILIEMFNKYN
In words: soluble scFv or IgG on yeast-displayed BoNT/B domains.

Test [6] concerns the target T3, BoNT/B translocation domain (HN), yeast …. The test can be described thus: IgG/Fab on yeast-displayed toxin domain, flow cytometry.
Test [7] deals with T2, Botulinum neurotoxin type B, subtype B1 ….
In test [8] the target is T3, BoNT/B translocation domain (HN), yeast …. The test can be described thus: yeast-displayed scFv.
Test [9] concerns the target T1, BoNT/B light chain (LC), yeast displayed. In words: yeast-displayed scFv.

B1: 2B29 scFv (scFv)
scFv: QVQLQESGPGLVKPSETLSLTCSVSGGSINSGTYYWTWIRQHPGKGLEWIGYIYYSGTTYYNPSLKSRVSMSVDTSKNLFSLKMNSVTAADTALYYCARGNPQYDTSGSYTGLYFDFWGQGTLVTVSSGGGGSGGGGSGGGGSQPVLTQSPSASGTPGQRVTISCSGSSSNLGSNTVSWYQQLPGTAPKLLIYSNNQRPSGVPDRFSGSKSGTSASLAISGLQSEDEADYYCATWDDSLSGGVFGGGTKLTVL
With B1, the binding result in test [1] is “binds”.

B2: B11 Fab (Fab, V domains shown)
VH: QVQLLQSAGGVVQPGRSLRLSCAASGFIFRTYGMHWVRQAPGKGLEWVAFVSSDGNNKFYSDSVKGRFTIPRDNAKNTLYLQMNSLETEDTAVYYCAKDRYPIDCSGGSCFSYGMDVWGQGTTVTVSS
VL: DIVMTQSPSTLSASVGDRVTVTCRASQSINSWLAWYQQKPGKAPKLLIYEASSLESGVPSRFSGSGSGTEFTLTISSLQPDDFATYYCQQYDSYWLTFGGGTKVEIKR
As for B2, the fold higher affinity than the scFv in test [2] is 1.46 fold.

B3: B6 Fab (Fab, V domains shown)
VH: QVQLVQSGAEVKKPGESLVISCKASGDKDTFTSFWIAWVRQMPGKGLEWMGIIYAGDSDTRYSPSFQGHVNISVDRSTNTAYLQWSSLKASDTAMYYCARHDSRYKYFYFGMDVWGQGTTVTVSS
VL: DVVMTQSPSSLSASVGDRITITCQAGQDISNFLNWYQQKPGKAPKLLIRDASNLETGVPSRFSGGGSGTHFTFTISSLHPEDIATYFCQQYDNLPYTFGQGTKLEIKR
Turning to B3, the binding result in test [3] is on record as “binds”.

B4: 6A12 IgG (antibody, V domains shown)
VH: QVQLVESGGGVVQPGRSLRLSCAASGFTFSSYGMHWVRQAPGKGLEWVSYISSSGSTIYYADSVKGRFTISRDNAKNSLYLQMNSLRAEDTAVYYCARVSIVGGPYGMDVWGQGTTVTVSS
VL: DIQMTQSPSSVSASVGNRVTITCRASQGISSWLAWYQQKPGKAPKLLIYAASSLQSGVPSRFSGSGSGTDFTLTISSLQPEDFATYYCQKANSFPLTFGGGTKMEIKR
On to B4, for which the binding result in [4] is “binds”.

B5: 1B18 scFv (scFv)
scFv: EVQLVQSGGGLVQPGGSRRLSCAASGFYFNAYWMTWVRQAPGKGLEWVANINLDGTEIYYLDSVKGRFTVSRDNVKNSVFLQMSSLRVEDTAVYFCARLEWGGRNGWVSPWGQGTLVTVSSGGGGSGGGGSGGGGSDVVMTQSPSSVSASVGDRVTITCRASQSISSYLNWYQQRPGKAPKLLIFAASSLQSAVPSRFSGSGSGTDFTLTISSLQPEDFATYYCQQSYSTPPTFGQGTKVEIK
Regarding B5, the binding result in test [5] is listed as “binds”.

B6: 4E17.1 IgG (antibody, V domains shown)
VH: EVQLVRSGGNLVQPGGSLRLSCAATGPIGSHWMTWVRQAPGQGLEWVANINLDGTEKFYVDSVKGRFTVSRDNRKSSVFLQMNNLRVDDTAVYYCARLQWGGYNGWLSPWGQGTLVTVSS
VL: DIVMTQSPSSLSASVGDRVTISCRASQSIRHYVNWYQQKPGKAPKLLIYKASSLASGAPSRFSGSGSGTDFTLTISSLQPDDFATYYCQQSYSIPLTFGGGTKVEIKR
Regarding B6, the binding result in [6] is recorded as “binds”.

B7: 4B19.1 IgG (antibody, V domains shown)
VH: QVQLVQSGAEVKKPGASVNVSCKASGYTFTGYYIYWVRQAPGQGLEWMGWINPNSGVTKYAQKFQGRVTMTIDTSTNTAYMELNRLRADDTAVYYCAREWTQLWSPYDYWGQGTTVTVSS
VL: DIVLTQSPSTLSASVGDRVTISCRASRSIGWYLNWYQQRPGKAPKLLIYAASSLHNGVPSRFSGSGSGTEFTLTISSLQPDDFATYYCQQAFGFPRTFGQGTKVEIKR
As to B7, in [7], the “fold increase in affinity, IgG against parental scFv” value turned out to be 2.25 fold.

B8: B11 scFv (scFv)
scFv: QVQLLQSAGGVVQPGRSLRLSCAASGFIFRTYGMHWVRQAPGKGLEWVAFVSSDGNNKFYSDSVKGRFTIPRDNAKNTLYLQMNSLETEDTAVYYCAKDRYPIDCSGGSCFSYGMDVWGQGTTVTVSSGGGGSGGGGSGGGGSDIVMTQSPSTLSASVGDRVTVTCRASQSINSWLAWYQQKPGKAPKLLIYEASSLESGVPSRFSGSGSGTEFTLTISSLQPDDFATYYCQQYDSYWLTFGGGTKVEIK
Take B8: the binding result in [8] is reported as “binds”.

B9: 1B11 scFv (scFv)
scFv: B8 scFv
For the molecule B9, the binding result in [5] was “binds”.

B10: A12 IgG (antibody, V domains shown)
VH: EVQLVESGGGVVQPGRSLRLSCAASGFTFSSYGMHWVRQAPGKGLEWVAVIWYDGSNKYYADSVKGRFTISRDNSKNTLYLQMNSLRAEDTAVYYCARGYSNYDYYYGMDVWGQGTTVTVSS
VL: DIQMTQSPSSLSASVGDRVTITCRASQRISNYLNWYQQKPGKAPKLLIYAASSLQSEVPSRFSGSGSGTDFTLTISSLQPEDFATYYCQQSYRPPLTFGGGTKVEIKR
In the case of B10, the binding result in test [4] was “binds”.

B11: B6 scFv (scFv)
scFv: QVQLVQSGAEVKKPGESLVISCKASGDKDTFTSFWIAWVRQMPGKGLEWMGIIYAGDSDTRYSPSFQGHVNISVDRSTNTAYLQWSSLKASDTAMYYCARHDSRYKYFYFGMDVWGQGTTVTVSSGGGGSGGGGSGGGGSDVVMTQSPSSLSASVGDRITITCQAGQDISNFLNWYQQKPGKAPKLLIRDASNLETGVPSRFSGGGSGTHFTFTISSLHPEDIATYFCQQYDNLPYTFGQGTKLEIK
With B11, in test [9], the binding result is “binds”.
